In PMC9389836 one finds hexamer/monomer ratio data, which are given here for 17 substances.

Common to all, as to assay: SEC
On the technique in general: SEC sorts molecules by how far they enter the pores of the column.

The target of assay [1] is SARS-CoV-2 Nsp15 W333C (SARS-CoV-2).
Assay [2] has as its target SARS-CoV-2 Nsp15 K13R (SARS-CoV-2).
Assay [3] concerns the target SARS-CoV-2 Nsp15 V128F (SARS-CoV-2).
For assay [4], the target named is SARS-CoV-2 Nsp15 P206S (SARS-CoV-2).
The target in assay [5] is SARS-CoV-2 Nsp15 D133Y (SARS-CoV-2).
Assay [6] deals with SARS-CoV-2 Nsp15 G18R (SARS-CoV-2).
For assay [7], the target named is SARS-CoV-2 Nsp15 T113I (SARS-CoV-2).
In assay [8] the target is SARS-CoV-2 Nsp15 H235Y (SARS-CoV-2).
Assay [9] concerns the target SARS-CoV-2 Nsp15 G18E (SARS-CoV-2).
For assay [10], the target named is SARS-CoV-2 Nsp15 K13N (SARS-CoV-2).
The target in assay [11] is SARS-CoV-2 Nsp15 A93S (SARS-CoV-2).
The target of assay [12] is SARS-CoV-2 Nsp15 V321M (SARS-CoV-2).
In assay [13] the target is SARS-CoV-2 Nsp15 K290N (SARS-CoV-2).
Assay [14] concerns the target SARS-CoV-2 Nsp15 T115A (SARS-CoV-2).
For assay [15], the target named is SARS-CoV-2 Nsp15 R207S (SARS-CoV-2).
Assay [16] has as its target SARS-CoV-2 Nsp15 T34I (SARS-CoV-2).
The target in assay [17] is SARS-CoV-2 Nsp15 L163F (SARS-CoV-2).

With SARS-CoV-2 Nsp15 W333C (enzyme), in assay [1], the hexamer/monomer ratio is 0.77.
Take SARS-CoV-2 Nsp15 K13R (enzyme): the hexamer/monomer ratio in [2] stood at 1.18.
Turning to SARS-CoV-2 Nsp15 V128F (enzyme), the hexamer/monomer ratio in [3] came out at 0.5.
For SARS-CoV-2 Nsp15 P206S (enzyme), the hexamer/monomer ratio in [4] was found to be 2.49.
For SARS-CoV-2 Nsp15 D133Y (enzyme), the hexamer/monomer ratio in assay [5] was 0.48.
Regarding SARS-CoV-2 Nsp15 G18R (enzyme), the hexamer/monomer ratio in assay [6] stood at 0.88.
For SARS-CoV-2 Nsp15 T113I (enzyme), in [7], the hexamer/monomer ratio was determined as 1.79.
On to SARS-CoV-2 Nsp15 H235Y (enzyme), for which the hexamer/monomer ratio in [8] was determined as 1.61.
As to SARS-CoV-2 Nsp15 G18E (enzyme), the hexamer/monomer ratio in [9] is 0.56.
For the substance SARS-CoV-2 Nsp15 K13N (enzyme), the hexamer/monomer ratio in [10] stood at 0.63.
As to SARS-CoV-2 Nsp15 A93S (enzyme), the hexamer/monomer ratio in assay [11] was found to be 0.49.
With SARS-CoV-2 Nsp15 V321M (enzyme), the hexamer/monomer ratio in assay [12] was found to be 0.65.
As to SARS-CoV-2 Nsp15 K290N (enzyme), the hexamer/monomer ratio in assay [13] stood at 2.12.
SARS-CoV-2 Nsp15 T115A (enzyme): the hexamer/monomer ratio in assay [14] is 0.55.
Consider SARS-CoV-2 Nsp15 R207S (enzyme), for which the hexamer/monomer ratio in [15] was 0.14.
As to SARS-CoV-2 Nsp15 T34I (enzyme), the hexamer/monomer ratio in assay [16] was 1.01.
On to SARS-CoV-2 Nsp15 L163F (enzyme), for which the hexamer/monomer ratio in assay [17] was determined as 0.23.
